{"source": "patent EP4663662A1", "about": "(Shanghai Qilu Pharmaceutical Research and Development …, dated 2025)", "binders": {"B1": {"name": "19CH-16H2L2 humanized anti-BCMA antibody (antibody, IgG1, V domains shown)", "VH": "QVQLVQSGAEVKKPGASVKVSCKASGFTFRSSYISWVRQAPGQGLEWIAWIYAGSGNTDYNQKFTGRVTMTVDTSTSTVYMELSSLRSEDTAVYYCARHYDPPHYFDYWGQGTLVTVSS", "VL": "DIQLTQSPSSLSASVGDRVTITCSASSGVSHMHWYQQKPGKAPKRWIYDTSKLTSGVPSRFSGSGSGTDFTLTISSLQPEDFATYYCQQWSRNPWTFGQGTKVEIK"}, "B2": {"name": "19CH-16H2L2-NA humanized anti-BCMA antibody variant (antibody, IgG1, V domains shown)", "VH": "B1 VH with T58A", "VL": "B1 VL"}, "B3": {"name": "19CH-16 anti-BCMA chimeric antibody derived from mouse hybridoma (antibody, IgG1, V domains shown)", "VH": "QGQMQQSGAELVKPGTSVKLSCKTSGFTFRSSYISWLQQKPGQSLEWIAWIYAGSGNTDYNQKFTGKAQLTVDTSSSTAYMQFSSLTTEDSAIYYCARHYDPPHYFDYWGQGTTLTVSS", "VL": "QIVLTQSPAIMSASPGEKVTMTCSASSGVSHMHWYQQKSGTSPKRWIYDTSKLTSGVPTRFSGTGSGTSYSLSISSMEAEDAATYYCQQWSRNPWTFGGGTKLEIK"}}, "key": {"[1]": {"molecular_target": "T1, cynomolgus monkey BCMA (cynomolgus monkey, UniProt Q02223 1-184 (human entry))", "T1 construct": "On transduced CHOK1 cells; also called cyno-BCMA; Cynomolgus monkey BCMA-CHOK1 cell line", "T1 sequence (Q02223 other isoform, or with tags, fused parts or gaps)": "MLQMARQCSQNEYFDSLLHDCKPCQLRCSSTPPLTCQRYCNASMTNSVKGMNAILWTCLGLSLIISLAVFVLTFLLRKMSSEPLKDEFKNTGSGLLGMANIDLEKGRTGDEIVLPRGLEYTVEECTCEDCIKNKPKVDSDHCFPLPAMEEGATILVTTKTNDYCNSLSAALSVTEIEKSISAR", "test": "flow cytometry, cynomolgus BCMA-CHOK1 cells"}, "[2]": {"molecular_target": "T2, human BCMA (human, UniProt Q02223 1-184)", "T2 construct": "On transfected CHOK1 cells; also called Human BCMA-CHOK1 cell line; Human BCMA CHOK1", "T2 sequence": "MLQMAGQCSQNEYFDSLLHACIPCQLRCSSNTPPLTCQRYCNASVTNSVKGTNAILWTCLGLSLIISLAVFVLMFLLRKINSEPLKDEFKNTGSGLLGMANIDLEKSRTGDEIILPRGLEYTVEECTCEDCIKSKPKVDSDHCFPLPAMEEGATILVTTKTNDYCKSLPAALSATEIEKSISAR", "test": "flow cytometry, human BCMA-CHOK1 cells"}, "[3]": {"molecular_target": "T2, human BCMA", "test": "flow cytometry, human BCMA-CHOK1 cells", "remark": "listed apart in the source"}, "[4]": {"molecular_target": "T1, cynomolgus monkey BCMA", "test": "flow cytometry, cynomolgus BCMA-CHOK1 cells", "remark": "listed apart in the source"}, "[5]": {"molecular_target": "T1, cynomolgus monkey BCMA", "test": "flow cytometry, cynomolgus BCMA-CHOK1 cells", "remark": "listed apart in the source"}, "[6]": {"molecular_target": "T2, human BCMA", "test": "flow cytometry, human BCMA-CHOK1 cells", "remark": "listed apart in the source"}}, "note": "Residue numbers refer to the chain shown, from its start. Where two headings read alike, the source gives them in different places.", "data": [{"binder": "B1", "values": [{"measurement": "EC50", "setting": "[1]", "value": 4.82, "unit": "nM"}, {"measurement": "EC50", "setting": "[2]", "value": 2.13, "unit": "nM"}]}, {"binder": "B2", "values": [{"measurement": "EC50", "setting": "[3]", "value": 2.15, "unit": "nM"}, {"measurement": "EC50", "setting": "[4]", "value": 5.86, "unit": "nM"}]}, {"binder": "B3", "values": [{"measurement": "EC50", "setting": "[5]", "value": 1.22, "unit": "nM"}, {"measurement": "EC50", "setting": "[6]", "value": 0.885, "unit": "nM"}]}]}
